Changes are numbered by the printed parent chain. Like-named read-outs stand apart in the source and are kept apart here.
T1: Kif7-DM (1-543aa) (human, UniProt Q2M1P5 1-543)
T1 sequence (looked up): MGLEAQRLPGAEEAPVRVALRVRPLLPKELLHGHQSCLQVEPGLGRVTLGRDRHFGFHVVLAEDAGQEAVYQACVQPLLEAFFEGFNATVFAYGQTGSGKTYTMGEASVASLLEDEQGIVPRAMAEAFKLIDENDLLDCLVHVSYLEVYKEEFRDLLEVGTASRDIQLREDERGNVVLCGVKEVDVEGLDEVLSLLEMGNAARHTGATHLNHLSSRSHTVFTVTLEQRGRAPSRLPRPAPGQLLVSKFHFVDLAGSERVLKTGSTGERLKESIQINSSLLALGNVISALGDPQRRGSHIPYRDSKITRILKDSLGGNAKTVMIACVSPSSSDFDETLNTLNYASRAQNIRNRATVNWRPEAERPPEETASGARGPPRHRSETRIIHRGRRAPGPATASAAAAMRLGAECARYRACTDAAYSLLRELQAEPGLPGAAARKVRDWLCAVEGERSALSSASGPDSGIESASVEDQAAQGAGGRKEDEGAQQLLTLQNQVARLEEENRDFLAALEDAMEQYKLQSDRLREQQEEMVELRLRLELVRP

T2: Kif7-DM(E502A)-GFP (human, UniProt Q2M1P5 1-543, E502A)
T2 sequence (looked up): T1 sequence (looked up) with E502A

B1: Kif7-DM-GFP (1-543aa) (domain or fragment, human, UniProt Q2M1P5 1-543, looked up)
chain: T1 sequence (looked up)
B2: GST-Kif7-CC-GFP (domain or fragment, human, UniProt Q2M1P5 460-600, looked up)
chain: PDSGIESASVEDQAAQGAGGRKEDEGAQQLLTLQNQVARLEEENRDFLAALEDAMEQYKLQSDRLREQQEEMVELRLRLELVRPGWGGPRLLNGLPPGSFVPRPHTAPLGGAHAHVLGMVPPACLPGDEVGSEQRGEQVTN
B3: Gli2-ZF (domain or fragment, human, UniProt P10070 418-604, looked up)
chain: KEDLDRDDCKQEAEVVIYETNCHWEDCTKEYDTQEQLVHHINNEHIHGEKKEFVCRWQACTREQKPFKAQYMLVVHMRRHTGEKPHKCTFEGCSKAYSRLENLKTHLRSHTGEKPYVCEHEGCNKAFSNASDRAKHQNRTHSNEKPYICKIPGCTKRYTDPSSLRKHVKTVHGPDAHVTKKQRNDVH
B4: Gli2-ZF-SNAP (domain or fragment, human, UniProt P10070 418-604, looked up)
chain: B3 chain
modifications: Alexa-647 label (TIRFM assays)
B5: Gli2-ZF-GFP (domain or fragment, human, UniProt P10070 418-604, looked up)
chain: B3 chain

Legend:
[1] = target: GDP-taxol stabilized microtubules (bovine tubulin) (bovine) (UniProt Q6B856); experiment: co-sedimentation
[2] = target: the molecule itself; experiment: single molecule fluorescence intensity and step-photobleaching analysis
[3] = target: GDP-taxol stabilized microtubules (bovine tubulin) (bovine) (UniProt Q6B856); experiment: co-sedimentation; remark: listed apart in the source
Gli2-ZF-GFP = target: B5; experiment: BLI
Gli2-ZF = target: B3; experiment: BLI
Kif7-DM-GFP (1-543aa) [4] = target: B1; experiment: BLI
Kif7-DM (1-543aa) = target: T1, Kif7-DM (1-543aa); experiment: BLI
Kif7-DM(E502A)-GFP [5] = target: T2, Kif7-DM(E502A)-GFP; experiment: BLI
Kif7-DM-GFP (1-543aa) [6] = target: B1; experiment: TIRF microscopy, recruitment to immobilised microtubules
Kif7-DM(E502A)-GFP [7] = target: T2, Kif7-DM(E502A)-GFP; experiment: as above
Kif7-DM-GFP (1-543aa) [8] = target: B1; experiment: SEC
GST-Kif7-CC-GFP = target: B2; experiment: SEC

Binder: B1
Kd [1]: 4.23 µM
stoichiometry N [2]: 2
Kd [3]: 0.54 µM

Binder: B2
Kd (Gli2-ZF-GFP): 0.057 ± 0.009 µM
Kd (Gli2-ZF): 0.065 ± 0.022 µM

Binder: B3
Kd (Kif7-DM-GFP (1-543aa) [4]): 0.138 ± 0.041 µM
Kd (Kif7-DM (1-543aa)): 0.099 ± 0.025 µM
Kd (Kif7-DM(E502A)-GFP [5]): 0.414 ± 0.103 µM

Binder: B4
Kd (Kif7-DM (1-543aa)): 0.099 ± 0.023 µM
fold enrichment of Gli2-ZF on microtubules over no kinesin control (Kif7-DM-GFP (1-543aa) [6]): ~9 fold
binding result (Kif7-DM(E502A)-GFP [7]): binds

Binder: B5
stoichiometry N (Kif7-DM-GFP (1-543aa) [8]): 1 Gli2-ZF per Kif7-DM chain (two per dimer)
stoichiometry N (GST-Kif7-CC-GFP): 0.5 Gli2-ZF-GFP per Kif7-CC-GFP chain (one per dimer)

Reference: paper PMC10016618 (Nature cell biology, 2021)
